Several values for one entry are separate records, joined by “and”; a condition that tells them apart may be missing. Identical values can stand only once. Values belong to the molecule of their own block, whether it stands above or below them. Non-standard residues stand in square brackets, D forms with d. Residues, ends and D or L forms follow the SMILES beside them. No end group written: not given here. pT = C[C@@H](OP(=O)(O)O)[C@H](N)C(=O)O; pS = N[C@@H](COP(=O)(O)O)C(=O)O
Key:
[1] = test system: purified protein complex containing 6His-FBXW7 and Skp1; experiment: Peptide array overlay with 6His-FBXW7/Skp1, substitution and truncation analysis; type: binding, human; settings: for binding potential for the FBXW7 complex vs dually-phosphorylated control sequence: densitometry of 6His probe
Description: Peptide libraries were produced by automatic SPOT synthesis and synthesized on continuous cellulose membrane supports on Whatman 50 cellulose membranes using Fmoc-chemistry with the AutoSpot-Robot ASS 222 (Intavis Bioanalytical Instruments, Köln, Germany) as previously described.[17] Phosphorylation of peptide array peptides by constitutively active GSK3 (14-306, Millipore UK) was undertaken as previously described.[18] Phosphorylation was detected using a phospho-serine specific antibody (ab9332, Abcam, UK).
Figure 2 FBXW7 binds DISC1 via a PD motif to regulate turnover of DISC1. (a) HEK293 cells were transfected with FLAG-tagged FBXW7 or FLAG-tagged FBXW7 without the F-Box substrate-binding domain (Δ-F). Lysates were prepared and blotted for DISC1, c-MYC, FLAG and GAPDH. Relative levels of DISC1 expression were calculated (right hand panel). *=P<0.05 as measured by Student’s t-test, n=3 (b) HEK293 cells were transfected with FLAG-FBXW7 and GFP-DISC1 (upper panels) or FLAG-FBXW7 and V5-DISC1 (lower panels). FLAG was immunoprecipitated from cell lysates and blotted for FLAG, GFP and V5. (c) HEK293 cells were transfected with FLAG-DISC1. FLAG was immunoprecipitated from cell lysates and blotted for FLAG and endogenous FBXW7. (d) and (e) Peptide arrays of sequences containing the DISC1 PD were overlayed with a purified protein complex containing 6His-FBXW7 and Skp1. Arrays were then probed for His tag. (f) Sequences of known FBXW7 substrates contain a PD that is also present in DISC1.
Figure 3 Substitution analysis pinpoints novel binding motifs for FBXW7. (a) Peptide array grids containing substitution of residues within the core binding motif domain ^197PTPPGSH^202 (with a range of native and non-native residues) were overlaid with a purified protein complex containing 6His-FBXW7 and Skp1. mD and mE are N-methyl aspartic acid and N-methyl glutamic acids respectively. (d) and (e) are the D-forms of aspartic acid and glutamic acid. (b) Arrays were then probed for 6His and spots that were over 200% of the control identified by densitometry.

Skp1-FBXW7 complex = target: T1, Skp1-FBXW7 complex (Homo sapiens, UniProt Q969H0); experiment: Isothermal titration calorimetry of DISC1 peptides; type: binding; settings: for Kd: NANO ITC, 20 mM HEPES-Na (pH 7.4), 200 mM NaCl, 2 mM β-mercaptoethanol, mean ± s.d. from two to three independent measurements, read-out: dissociation constant (KD)
T1 construct: human FBXW7 (residues 263–707); His6 (N, cleaved yes); made in house; host or cells: Escherichia coli
T1 sequence (Q969H0 263-707, one chain of several): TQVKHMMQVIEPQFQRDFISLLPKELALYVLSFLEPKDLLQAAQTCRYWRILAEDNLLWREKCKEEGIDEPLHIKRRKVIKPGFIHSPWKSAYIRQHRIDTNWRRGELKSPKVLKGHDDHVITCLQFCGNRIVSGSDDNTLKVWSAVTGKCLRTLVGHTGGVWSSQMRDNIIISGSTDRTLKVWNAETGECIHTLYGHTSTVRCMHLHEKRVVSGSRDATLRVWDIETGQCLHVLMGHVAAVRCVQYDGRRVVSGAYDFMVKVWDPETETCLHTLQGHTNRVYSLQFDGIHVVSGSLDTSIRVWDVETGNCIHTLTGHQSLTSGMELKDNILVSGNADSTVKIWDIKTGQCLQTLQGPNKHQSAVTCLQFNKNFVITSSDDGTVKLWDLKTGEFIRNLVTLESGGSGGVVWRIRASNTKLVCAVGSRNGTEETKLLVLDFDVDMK
Procedure: Amino-terminal His6 tagged human FBXW7 (residues 263–707) and truncated Skp1 (Schulman et al., 2000) were co-expressed as a dicistronic message in Escherichia coli. The Skp1-FBXW7 complexes were purified by Ni2+-nitrilotriacetic acid (NTA) affinity chromatography followed by tobacco eth virus (TEV) protease cleavage of the His6 tag, and by anion exchange and gel filtration chromatography. For crystallization, the Skp1-FBXW7 complex was concentrated to 48 mg ml^–1 by ultrafiltration in 20 mM HEPES-Na (pH 7.4), 200 mM NaCl and 5 mM dithiothreitol (DTT). The DISC1 peptides were synthesized chemically and purified by HPLC.
All measurements were performed at 25 °C with a NANO ITC System (TA Instruments, New Castle, DE, USA). Protein samples were dialyzed against a solution containing 20 mM HEPES-Na (pH 7.4), 200 mM NaCl, and 2 mM β-mercaptoethanol. Typically, the concentrations of Skp1-FBXW7 and DISC1 peptides were […] and 1 mM, respectively. Titration data were analyzed using the TA Nano Analyze software, and the reported dissociation constants and their standard deviations were derived from two to three independent measurements.
To test whether phosphorylation of both the Thr198 and Ser202 sites in DISC1 is required for binding to FBXW7, we used isothermal titration calorimetry (ITC) to measure the binding affinity of various phosphorylated DISC1 peptides to the Skp1-FBXW7 complex (Supplementary Figure 5). […] Thus, specific interaction of DISC1 with the Skp1-FBXW7 complex requires simultaneous phosphorylation at Thr198 and Ser202 within the DISC1 PD motif.

[2] = target: purified protein complex containing 6His-FBXW7 and Skp1, Q969H0;P63208; experiment: peptide array overlay, anti-6His detection, densitometry; settings: read off a plot
DISC1, HEK293 cells = experiment: Endogenous DISC1 protein level in HEK293 cells, western blot; type: cell-based, human; settings: cycloheximide 50 μg ml^–1, Figure 1a, n=3
Procedure: HEK293 cells were sourced from ATCC (CRL-1573) and cultured as described in the manufacturer’s protocol. DMEM (SIGMA) supplemented with 10% fetal bovine serum, 2 mM L-glutamine, […] penicillin-streptomycin at 37 °C in a humidified atmosphere of 5% CO2. The cells were passaged at about 80% confluency. Cells were transfected with plasmid DNA using polyfect transfection reagent (Qiagen) according to the manufacturer’s instructions. HEK293 cells were treated with the pharmacological agents cycloheximide (C7698) and MG132 (M7449) (Sigma-Aldrich) or DISC1 disruptor peptides (custom synthesized by Severn Biotech) as described in the text.
Briefly, detergent-soluble proteins were isolated from cells by disruption in lysis buffer 20 mM Tris-HCl (pH 7.5), 150 mM NaCl, 1 mM Na2EDTA, 1 mM EGTA, 1% triton, 2.5 mM sodium pyrophosphate, 1 mM β-glycerophosphate, 1 mM Na3VO4, 1 μg ml^–1 leupeptin, 10 mM DTT with Roche protease inhibitor, phosSTOP (Roche, 04906837001). Detergent-insoluble proteins were removed by centrifugation at 10 000 g for 10 min, and the soluble fraction was retained. Cell lysates were adjusted to equal protein amount (1 μg μl^–1) using cell lysis buffer. Cell lysates normalized for the protein concentration were incubated with mouse IgG (Millipore, 12487) Protein A agarose beads for 2 h at 4 °C. […] The complexes were analyzed on SDS PAGE. […]

[3] = target: Skp1-FBXW7 complex (human FBXW7 residues 263-707 with truncated Skp1, His6 tag cleaved) (UniProt Q969H0); experiment: ITC; 25 °C, NANO ITC System; 20 mM HEPES-Na (pH 7.4), 200 mM NaCl, 2 mM β-mercaptoethanol; Skp1-FBXW7 and DISC1 peptides typically 50 mM and 1 mM (so in the source); two to three independent measurements
[4] = target: T2, human FBXW7 (residues 263-707) (human, UniProt Q969H0 263-707); experiment: crystal structure; Skp1-FBXW7 mixed with a twofold molar excess of the DISC1 peptide; crystallised from 100 mM HEPES-Na (pH 7.4), 1.2 M Li2SO4, hanging drop, 4 °C; one complex in the asymmetric unit; settings: both partners purified
T2 construct: human FBXW7, residues 263-707; The FBXW7 chain of m1, written alone for the pairs inside the crystal structure; also called Fbw7; source: E. coli, co-expressed with truncated Skp1, purified as the complex; not shown: His6, N-terminal, cleaved
T2 sequence (Q969H0 263-707): as the sequence (Q969H0 263-707, one chain of several) above

[5] = ITC, 25 °C, pH 7.4, singly phosphorylated peptides

Molecule: GmDPPGmEH [I14, substituted DISC1 PD core peptide GmDPPGmEH]
binding potential for the FBXW7 complex vs dually-phosphorylated control sequence [1]: more than a twofold increase in binding potential

Molecule: C[C@@H](OP(=O)(O)O)[C@H](NC(=O)[C@@H]1CCCN1)C(=O)N1CCC[C@H]1C(=O)N1CCC[C@H]1C(=O)NCC(=O)N[C@@H](COP(=O)(O)O)C(=O)N[C@@H](Cc1c[nH]cn1)C(=O)O [DISC1^197–203/pT198/pS202] (H-P[pT]PPG[pS]H-OH)
Kd (Skp1-FBXW7 complex; ITC, 25 °C): 17 ± 2 µM

Molecule: CC(C)[C@H](NC(=O)[C@H](CCC(=O)O)NC(=O)[C@@H]1CCCN1)C(=O)N1CCC[C@H]1C(=O)N1CCC[C@H]1C(=O)N[C@H](C(=O)N1CCC[C@H]1C(=O)N1CCC[C@H]1C(=O)NCC(=O)N[C@@H](COP(=O)(O)O)C(=O)N[C@@H](Cc1c[nH]cn1)C(=O)N[C@@H](CO)C(=O)N[C@@H](C)C(=O)N[C@@H](Cc1ccccc1)C(=O)N[C@H](C(=O)O)[C@@H](C)O)[C@@H](C)OP(=O)(O)O [DISC1^193–207/pT198/pS202] (H-PEVPP[pT]PPG[pS]HSAFT-OH)
Kd (Skp1-FBXW7 complex; ITC, 25 °C): 1 ± 0.2 µM

Molecule: GmEPPGmEH [I11, substituted DISC1 PD core peptide GmEPPGmEH]
binding potential for the FBXW7 complex vs dually-phosphorylated control sequence [1]: more than a twofold increase in binding potential

Molecule: DISC1^193–207/pT198: singly phosphorylated DISC1 peptide (PEVPP[pT]PPGSHSAFT)
measurable enthalpy signal / ITC signal (Skp1-FBXW7 complex; [5]): neither of the singly phosphorylated DISC1^193–207/pT198 and DISC1^193–207/pS202 peptides gave a measurable enthalpy signal | measurable enthalpy signal / ITC signal (Skp1-FBXW7 complex; ITC, 25 °C, pH 7.4; singly phosphorylated peptides; pT198)): No ITC signal

Molecule: C[C@@H]1C[C@@H]([C@H](O)CC2CC(=O)NC(=O)C2)C(=O)[C@@H](C)C1 [cycloheximide, reference compound]
endogenous DISC1 level after cycloheximide (DISC1, HEK293 cells): rapidly decreased

Molecule: PTPPGSH
association of FBXW7 complex / core binding sequence ([1]; phosphorylation and truncation analysis): minimum core binding sequence within the PD domain

B1: DISC1 peptide (residues 193-207, phosphorylated at Thr198 and Ser202) (peptide, UniProt Q9NRI5 193-207, looked up)
peptide: PEVPP[pT]PPG[pS]HSAFT
notes: printed residues: Pro193, Glu194, Val195, Pro196, Pro197, Thr198, Pro199, Pro200, Gly201, Ser202, His203; also called 15-residue core peptide; source: synthetic peptide, purified by HPLC
Kd [3]: 1 µM | binding result [4]: binds

Molecule: P[pT]PPG[pS]H [DISC1 peptide (residues 197-203, phosphorylated at Thr198 and Ser202)]
Kd [3]: 17 µM

Second part, led by results:

measurable enthalpy signal / ITC signal (Skp1-FBXW7 complex; ITC, 25 °C, pH 7.4; singly phosphorylated peptides; pS202)): No ITC signal
Molecule: DISC1^193–207/pS202: singly phosphorylated DISC1 peptide (PEVPPTPPG[pS]HSAFT)
measurable enthalpy signal / ITC signal (Skp1-FBXW7 complex; [5]): neither of the singly phosphorylated DISC1^193–207/pT198 and DISC1^193–207/pS202 peptides gave a measurable enthalpy signal

percent of parent [2]: 230 % of control
Molecule: DISC1 peptide (residues 197-203, phosphorylated at Thr198 and Ser202) pT198E; pS202mD (N-methyl Asp)

percent of parent [2]: 220 % of control and 190 % of control
Molecule: DISC1 peptide (residues 197-203, phosphorylated at Thr198 and Ser202) pT198d (D-Asp); pS202mE (N-methyl Glu)

percent of parent [2]: 250 % of control
Molecule: DISC1 peptide (residues 197-203, phosphorylated at Thr198 and Ser202) P197G; pT198d (D-Asp); pS202mE (N-methyl Glu)

percent of parent [2]: 210 % of control
Molecule: DISC1 peptide (residues 197-203, phosphorylated at Thr198 and Ser202) pT198E; pS202d (D-Asp)

percent of parent [2]: 210 % of control and 280 % of control
Molecule: DISC1 peptide (residues 197-203, phosphorylated at Thr198 and Ser202) pT198e (D-Glu); pS202mE (N-methyl Glu)
